Experimental data from publication doi:10.1101/2023.03.17.532992.

Key:
[1] = target: nucleosome core particle (recombinant X. laevis histone octamer on 601 positioning DNA) (X. laevis); experiment: native gel or EMSA
[2] = target: nucleosome core particle (recombinant X. laevis histone octamer on 601 positioning DNA) (X. laevis); experiment: SEC-MALS
[3] = target: nucleosome core particle (recombinant X. laevis histone octamer on 601 positioning DNA) (X. laevis); experiment: MST
[4] = target: nucleosome core particle (recombinant X. laevis histone octamer on 601 positioning DNA) (X. laevis); experiment: AUC

Kd [1] [nM] | decrease of binding affinity against wild type [1] [%] | Substance | further results
437 | – | BCL7A (1-100) truncation mutant (from UniProt Q4VC05-2 1-100) (domain or fragment) | –
– | 50 | BCL7A P78S mutant protein (from UniProt Q4VC05-2 1-231) (natural protein) | –
– | 50 | BCL7A R11S mutant protein (from UniProt Q4VC05-2 1-231) (natural protein) | –
218 | – | BCL7A, full length human (isoform Q4VC05-2, 231 amino acids) (from UniProt Q4VC05-2 1-231) (natural protein) | stoichiometry N (BCL7A per NCP) [2]: 1; Kd [3]: 230 nM; stoichiometry N (BCL7A per NCP) [4]: 1
124 | – | BCL7C, full length (from UniProt Q8WUZ0 1-217) (natural protein) | –
